Measurements reported in article doi:10.1101/2023.03.06.531428 (bioRxiv, 2023).

B1: ADAMTS-7-FLAG (enzyme)
chain: APGPAPGRATEGRAALDIVHPVRVDAGGSFLSYELWPRALRKRDVSVRRDAPAFYELQYRGRELRFNLTANQHLLAPGFVSETRRRGGLGRAHIRAHTPACHLLGEVQDPELEGGLAAISACDGLKGVFQLSNEDYFIEPLDSAPARPGHAQPHVVYKRQAPERLAQRGDSSAPSTCGVQVYPELESRRERWEQRQQWRRPRLRRLHQRSVSKEKWVETLVVADAKMVEYHGQPQVESYVLTIMNMVAGLFHDPSIGNPIHITIVRLVLLEDEEEDLKITHHADNTLKSFCKWQKSINMKGDAHPLHHDTAILLTRKDLCAAMNRPCETLGLSHVAGMCQPHRSCSINEDTGLPLAFTVAHELGHSFGIQHDGSGNDCEPVGKRPFIMSPQLLYDAAPLTWSRCSRQYITRFLDRGWGLCLDDPPAKDIIDFPSVPPGVLYDVSHQCRLQYGAYSAFCEDMDNVCHTLWCSVGTTCHSKLDAAVDGTRCGENKWCLSGECVPVGFRPEAVDGGWSGWSAWSICSRSCGMGVQSAERQCTQPTPKYKGRYCVGERKRFRLCNLQACPAGRPSFRHVQCSHFDAMLYKGQLHTWVPVVNDVNPCELHCRPANEYFAEKLRDAVVDGTPCYQVRASRDLCINGICKNVGCDFEIDSGAMEDRCGVCHGNGSTCHTVSGTFEEAEGLGYVDVGLIPAGAREIRIQEVAEAANFLALRSEDPEKYFLNGGWTIQWNGDYQVAGTTFTYARRGNWENLTSPGPTKEPVWIQLLFQESNPGVHYEYTIHREAGGHDEVPPPVFSWHYGPWTKCTVTCGRGVQRQNVYCLERQAGPVDEEHCDPLGRPDDQQRKCSEQPCPARWWAGEWQLCSSSCGPGGLSRRAVLCIRSVGLDEQSALEPPACEHLPRPPTETPCNRHVPCPATWAVGNWSQCSVTCGEGTQRRNVLCTNDTGVPCDEAQQPASEVTCSLPLCRWPLGTLGPEGSGSGSSSHELFNEADFIPHHLAPRPSPASSPKPGTMGNAIEEEAPELDLPGPVFVDDFYYDYNFINFHEDLSYGPSEEPDLDLAGTGDRTPPPHSHPAAPSTGSPVPATEPPAAKEEGVLGPWSPSPWPSQAGRSPPPPSEQTPGNPLINFLPEEDTPIGAPDLGLPSLSWPRVSTDGLQTPATPESQNDFPVGKDSQSQLPPPWRDRTNEVFKDDEEPKGRGAPHLPPRPSSTLPPLSPVGSTHSSPSPDVAELWTGGTVAWEPALEGGLGPVDSELWPTVGVASLLPPPIAPLPEMKVRDSSLEPGTPSFPTPGPGSWDLQTVAVWGTFLPTTLTGLGHMPEPALNPGPKGQPESLSPEVPLSSRLLSTPAWDSPANSHRVPETQPLAPSLAEAGPPADPLVVRNAGWQAGNWSECSTTCGLGAVWRPVRCSSGRDEDCAPAGRPQPARRCHLRPCATWHSGNWSKCSRSCGGGSSVRDVQCVDTRDLRPLRPFHCQPGPAKPPAHRPCGAQPCLSWYTSSWRECSEACGGGEQQRLVTCPEPGLCEEALRPNTTRPCNTHPCTQWVVGPWGQCSGPCGGGVQRRLVKCVNTQTGLPEEDSDQCGHEAWPESSRPCGTEDCEPVEPPRCERDRLSFGFCETLRLLGRCQLPTIRTQCCRSCSPPSHGAPSRGHQRVARR
B2: untagged, recombinant TIMP-1 (natural protein)
chain: not shown

Legend:
Test in all cases: AlphaScreen or HTRF
TIMP-1-HA [1] = target: T1, TIMP-1-HA (human, UniProt P01033 24-207)
T1 sequence (P01033 24-207): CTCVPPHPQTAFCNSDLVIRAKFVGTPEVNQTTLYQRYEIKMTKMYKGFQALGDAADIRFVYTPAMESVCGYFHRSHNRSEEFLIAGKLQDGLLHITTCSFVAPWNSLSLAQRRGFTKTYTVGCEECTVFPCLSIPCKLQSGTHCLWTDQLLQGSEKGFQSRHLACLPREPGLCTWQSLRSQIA

TIMP-1-HA [2] = target: T1, TIMP-1-HA; remark: listed apart in the source
ADAMTS-7-FLAG = target: B1

B1
FRET ratio (665/620) (TIMP-1-HA [1]): 5480 665/620 ratio | FRET ratio (665/620) with 0 ng untagged TIMP-1 (TIMP-1-HA [2]): 4950 665/620 ratio

B2
FRET ratio (665/620) of ADAMTS-7-FLAG and TIMP-1-HA with 400 ng untagged TIMP-1 (ADAMTS-7-FLAG): 4420 665/620 ratio | FRET ratio (665/620) of ADAMTS-7-FLAG and TIMP-1-HA with 800 ng untagged TIMP-1 (ADAMTS-7-FLAG): 3570 665/620 ratio
